Measured values from paper PMC9117555 (iScience, 2022).
Blank lines part the entries; values can stand above or below the molecule they belong to.

Key:
[1] = target: TrkA-ΔeJTM (rat) (UniProt P35739); assay: flow cytometry on cells
[2] = target: the molecule itself; assay: solution NMR
[3] = target: the molecule itself; assay: cross-linking
[4] = target: rat TrkA with an N-terminal HA tag (wild type) (rat, UniProt P35739 33-799); assay: flow cytometry on cells

- Kd [1]: 760 nM
Molecule: biotinylated NGF (nerve growth factor) (from UniProt P01139 122-241) (ligand)

- Kd [4]: 4.4 nM
B3: biotinylated NGF (nerve growth factor) (ligand, UniProt P01139 122-241, looked up)
chain: SSTHPVFHMGEFSVCDSVSVWVGDKTTATDIKGKEVTVLAEVNINNSVFRQYFFETKCRASNPVESGCRGIDSKHWNSYCTTTHTFVKALTTDEKQAAWRFIRIDTACVCVLSRKATRRG
modifications: biotin (EZ-Link Sulfo-NHS-Biotin reagent; sites not stated)

More lines, now with the values behind:

B1: TrkA-eJTM-TMD (D380-K447 of human TrkA) (domain or fragment, UniProt P04629 380-447, looked up)
chain: DNPFEFNPEDPIPVSFSPVDTNSTSGDPVEKKDETPFGVSVAVGLAVFACLFLSTLLLVLNKCGRRNK
- stoichiometry N [2]: 2

B2: TrkA-eJTM-TMD-K410C (domain or fragment, human, UniProt P04629 380-447, looked up)
chain: DNPFEFNPEDPIPVSFSPVDTNSTSGDPVECKDETPFGVSVAVGLAVFACLFLSTLLLVLNKCGRRNK
modifications: also: disulfide between C410 of two chains in the cross-linked state (dimer)
- stoichiometry N [3]: 2
